# Measured values: paper PMC3344845, “Structure of Bradavidin – C-Terminal Residues Act as Intrinsic Ligands” (PLoS ONE, 2012)
# How the values were obtained:
# [1] = biological target: core-bradavidin (Bradyrhizobium japonicum); assay: ITC; core-bradavidin, avidin, streptavidin or rhizavidin in the cell, Brad-tag in the syringe, 40°C, 50 mM sodium phosphate pH 7.0, 100 mM NaCl; n is the stoichiometry per subunit
# [2] = biological target: core-bradavidin (Bradyrhizobium japonicum); assay: ITC; core-bradavidin in the cell, ligand (Brad-tag or Brad-tag–EGFP) in the syringe, 15°C, 50 mM sodium phosphate pH 7.0, 100 mM NaCl; n is the stoichiometry per subunit
# [3] = biological target: core-bradavidin (Bradyrhizobium japonicum); assay: as above; remark: listed apart in the source
binder,measurement,setting,value
SEKLSNTK [Brad-tag (synthetic peptide SEKLSNTK)],Kd,[1],26 µM
same,dH,[1],-4.4 kcal mol^–1
same,stoichiometry N,[1],0.62
same,Kd,[2],25 µM
same,dH,[2],1.7 kcal mol^–1
same,stoichiometry N,[2],0.94
same,dH,[3],1.1 kcal/mol
